Assay results as given in the nanobody polyreactivity screen of Harvey et al. (2022).

Assay: yeast display, Sf9 membrane polyspecificity reagent, FACS + sequencing; frameworks hold sequencing errors
Outline: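 Synthetic nanobody libraries on Saccharomyces cerevisiae BJ5465 were galactose-induced for 36–48 hours, stained 1 hour at 4 °C with 10% biotinylated, detergent-solubilized Sf9 membrane reagent and enriched on streptavidin microbeads. FACS then separated cells into low and high (top ~1%) gates by anti-HA (expression) and streptavidin (reagent binding) fluorescence. Genes were colony-PCR amplified, MiSeq 2 × 250 sequenced and CDR-length filtered. A clone's polyreactivity label is that of its gate of origin.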

| Sequence | polyreactivity (PSR sort gate) |
| --- | --- |
| QVQLVESGGGLVQAGGSLRLSCAASGRIFWYNAMGWYRPAPGKERELVASITRGNNTYYADSVKGRFTISRDNAKTTVYLQMNSLKPEDTAVYYCAKRYIYRYYWGQGTQVTVSS | high polyreactivity |
| QVQLVESGGGLVQAGGSLRLSCAASGRIFWYNAMGWYRQAPGKERELVAGITRSGGRTYYADSVKGRFTISRDNAKNTVYLQMNSLKPEDTAVYYCAAAPYARRDYEYWGQGTQVTVSS | high polyreactivity |
| QVQLVESGGGLVQAGGSLRLSCAASGRIFWYNAMGWYRQAPGKERELVAGITSGGRTNYADSVKGRFTISRDNAKNTVYLQMNSLKPEDTAVYYCAADVPPGEVVTNDYWGQGTQVTVSS | low polyreactivity |
| QVQLVESGGGLVQAGGSLRLSCAASGRIFWYNAMGWYRQAPGKERELVAVITSGTSTYYADSVKGRFTISRDNAKNTVYVHMNSLKPDDTAVYYCAARYLSRYSERHYYDWGQGTQVTVSS | high polyreactivity |
| QVQLVESGGGLVQAGGSLRLSCAASGRIFWYNAMGWYRQAPGKERGLVAVISTRGGRTYYADSVKGRFTISRDNAKNTVYLQMNSLKPEDTAVYYCAAEFLNKAVGGVTSIYDSWGQGTQVTVSS | low polyreactivity |
| QVQLVESGGGLVQAGGSLRLSCAASGRIFYAYTMGWYRQAPGKERELVAAISGSGSTYYADSVKGRFTISRDNAKNNVYLQMNSLKPEDTAVYYCAKRYRFHFWGQGTQVTVSS | low polyreactivity |
| QVQLVESGGGLVQAGGSLRLSCAASGRIFYAYTMGWYRQAPGKERELVAAISGSGSTYYADSVKGRFTISRDNAKNTVYLQMNSLKPEDTAVYYCAADVTGGRKYDYWGQGTQVTLSS | low polyreactivity |
| QVQLVESGGGLVQAGGSLRLSCAASGRIFYAYTMGWYRQAPGKESELVAAIRYGGGSTYYADSVKGRFTISRDNAKNTVYLLMNSLIPEDTAVYYCARDRYNLYSRSYYWGQGTQVTVSS | low polyreactivity |
| QVQLVESGGGLVQAGGSLRLSCAASGRIFYDNAMGWYRQAPGKERELVAAISYSGDSTYYADSVKGRFTISRDNAKNTVYLQMNSLKPEDTAVYYCAAVYISQGAFAYDYWGQGTQVTVTS | low polyreactivity |
| QVQLVESGGGLVQAGGSLRLSCAASGRIFYDYAMGWYRQAPGKERELVAAISKGGGSTYYADSVKGRFTISRDNAKNTVYFQMNSLKPEDTAVYYCASSTSHTTDTRYDYWGQGTQVTVSS | low polyreactivity |
| QVQLVESGGGLVQAGGSLRLSCAASGRIFYDYTMGWYRPAPGKERELVAAINSGGGSTYYADSVKGRFTISRDNAKITVYLQMNSLKPEDTAVYYCNADGQWNIWEYDYWGQGTQVTVSS | high polyreactivity |
| QVQLVESGGGLVQAGGSLRLSCAASGRIFYDYTMGWYRQAPGKERELVAAINSGGGSTYYADSVKGRFTISRDNAKITVYLQMNSLKPEDTAVYYCNADGQWNIWEYDYWGQGTQVTVSS | high polyreactivity |
| QVQLVESGGGLVQAGGSLRLSCAASGRIFYFYAMGWYRQAPGKERELVAAISTSGGSTYYPDSVKGRFTISRDNAKNTVYLQMNSLKQEDTAVYYCAARFRYYGSEYDYWGQGTQVTVSS | low polyreactivity |
| QVQLVESGGGLVQAGGSLRLSCAASGRIFYFYAMGWYRQAPGKERELVASISYSGGNTYYADSVKGRFTISRDNAKNTVYLQMNSLKPEDTAVYYCNVLPNTGARGYYYWGQGTQVNVSS | low polyreactivity |
| QVQLVESGGGLVQAGGSLRLSCAASGRIFYFYAMGWYRQAPGKERELVAVISYGGDRTSYADSVKGRFTISRDNAKNTVYLQMNSLKPEDTAVYYCAARPFYRGYYYWGQGTQVTVSS | high polyreactivity |
| QVQLVESGGGLVQAGGSLRLSCAASGRIFYFYTMGWYRQAPGKEREFVAAISDSGDGTYYADSVKGRFTISRDNAKNTVYLQMNSLKPEDTAVYYCAADGTLFSEYYWFFGYHDYWGQGTQVTVSS | high polyreactivity |
| QVQLVESGGGLVQAGGSLRLSCAASGRIFYGNAMGWYRQAPGKERELVARISSGSSTNYADSVKGRFTISRDNAKNTVYLQMNSLKPEDTAVYYCAARYTARRQSYGYWGQGTQVTVSS | high polyreactivity |
| QVQLVESGGGLVQAGGSLRLSCAASGRIFYGNAMGWYRQAPGKERQLVAAITDGGSTNYADSVKGRFTISRDNAKNTVYLQINSLKPEDTAVYYCNADNILYWSTLDYWGQGTQVTVSS | low polyreactivity |
| QVQLVESGGGLVQAGGSLRLSCAASGRIFYGNDRGWYRQAPGKERELVAAITWSGGSTYYADSVKGRFTISRDNAKNTVYLQMNSLKPEDTAVYYCAAVPRRGWDIRRYDSWGQGTQVTVSS | high polyreactivity |
| QVQLVESGGGLVQAGGSLRLSCAASGRIFYGYAMGWYRQAPGKEREFVAAITSGGRTYYADSVKGRFTISRDNAKNTVYLQMNSLKPEDTAVYYCAAAQYYRYGYWGQGTQVTVSS | high polyreactivity |
| QVQLVESGGGLVQAGGSLRLSCAASGRIFYGYAMGWYRQAPGKEREFVARINVSGTSTFYADSVKGRFTISRDNAKNSVYLQMHSLKPEDTAVYYCAARGLPSNYYYYVHGYIMDYWGQGTQVTVSS | low polyreactivity |
| QVQLVESGGGLVQAGGSLRLSCAASGRIFYGYAMGWYRQAPGKERELVAAITRSSSTYYADSVKGRFTISRDNAKNTVYLQMNSLKPEDTAVYYCNARVWAKYDYWGQGTQVTVSS | high polyreactivity |

| Sequence | polyreactivity (PSR sort gate) |
| --- | --- |
| QVQLVESGGGLVQAGGSLRLSCAASGRIFYGYTMGCYRQAPGKETELVASITIRGSRTYYADSVKGRFTISRDNAKNTVYVQMNSLKPEDTAVYYCAADFVPARTVHRYDYWGQGTQVTVSS | low polyreactivity |
| QVQLVESGGGLVQAGGSLRLSCAASGRIFYGYTMGWYRQAPGKERELVAAISWSGGSTYYADSVKGRFTISRDNAKNTVYLQLNSLKPEDTAVYYCNAVTLWYIYGWDYYYWGQGTQVTVSS | high polyreactivity |
| QVQLVESGGGLVQAGGSLRLSCAASGRIFYGYTMGWYRQAPGKERELVAAITRSTGSTYYADSVKGRFTISRDNAKNTVYLQMNSLKPEDTAVYYCAKYGYTNTPKSPMDYWGQGTQVTVSS | low polyreactivity |
| QVQLVESGGGLVQAGGSLRLSCAASGRIFYHNAMGWYRQAPGKERELVAAITWSGGSTYYADSVKGRFTISRDNAKNTVYLQMNSLKPEDTAVYYCAAYFYGRSYGYDYWGQGTQVTVSS | high polyreactivity |
| QVQLVESGGGLVQAGGSLRLSCAASGRIFYHYAMGWYRQAPGKERELVAGINYRGGSTTYADSVKGRFTISRDNAKNTVYLQMNSLKPEDTAVYYCATLYPWKFPIRETGFDSWGQGTQVTVSS | low polyreactivity |
| QVQLVESGGGLVQAGGSLRLSCAASGRIFYHYAMGWYRQAPGTERELVAAINSSGGSTHYADSVKGRFTISRDNAKNTVYLQMNSLKPVDTAVYYCAADGYWRDYSGYWDYYYIYDYWGQGTQVTVSS | low polyreactivity |
| QVQLVESGGGLVQAGGSLRLSCAASGRIFYHYPMGWYRQAPGKEREFVAAISLRAGSTYYADSVKGRFTISRYNAKNNVYLQMNSLKPEDTAFYYCAARRASYVTSRYDYWGQGTQVTVSS | high polyreactivity |
| QVQLVESGGGLVQAGGSLRLSCAASGRIFYINDMGWYRQAHGKERELVAAISASGGSTYYADSVKGRFTISRDNAKNTVYLQMNSLKPEDTAVYYCAAVYFHPGYDLFDYWGQGTQVTVSS | low polyreactivity |
| QVQLVESGGGLVQAGGSLRLSCAASGRIFYIYAMGWYRQAPGKERELVAAISSGGTTNYADSVKGRFTISRDNAKNTVYLQMNSLKPEDTAVYYCAAYWRSRNRFYWGQGTQVTVSS | high polyreactivity |
| QVQLVESGGGLVQAGGSLRLSCAASGRIFYKYAMGWYRQAPGKERELVAAISYSGGSTYYADSVKGRFTISRDNAKNTVYLQMKSLKPEDTAVYYCNAKPPYGVRSWGDYWGQGTQVTVSS | low polyreactivity |
| QVQLVESGGGLVQAGGSLRLSCAASGRIFYLNAMGWYRQAPGKERELVAAITRSAASTHYADSVKGRFTISRDNAKNTVYLQMNSLKPEDTAVYYCAARFWYDYRHYDYWGQGTQVTVSS | low polyreactivity |
| QVQLVESGGGLVQAGGSLRLSCAASGRIFYLNAMGWYRQAPGKERQLVATITSGGSTNYADSVKGRFTISRDNAKNTVYLQMNSLKPEDTAVYYCAAGVSWYGPYDYLWFYAFDYWGQGTQVTVSS | low polyreactivity |
| QVQLVESGGGLVQAGGSLRLSCAASGRIFYLNGKGWYRQAPGKERELVAAISSSDDSTYYADSVKGRFTISRDNAKNTVYLQMKSLKPEDTAVYYCAAGYHQVQNYGDAYYWSELYSWGQGTQVTVSS | low polyreactivity |
| QVQLVESGGGLVQAGGSLRLSCAASGRIFYLNGMGWYRQAPGKERELLAAISSSDDSTYYADSVKGRFTISRDNAKNTVYLQMISLKPEDTAVYYCAAGYHHVQNYGDAYYWSELYSWGQGTQVTVSS | low polyreactivity |
| QVQLVESGGGLVQAGGSLRLSCAASGRIFYLNVMGWYRQAPGKERELVAAITRRDVTTYADSVKGRFTISRDNAKNTVYLEMNSLKPEDTAVYYCNAVYYNWIGFDYWGQGTQVTVSS | low polyreactivity |
| QVQLVESGGGLVQAGGSLRLSCAASGRIFYLYTMAWYRQAPGKERELVAAITWSGGRTFYADSVKGRFTISRDNAKNTVYLQMNSLKPEDTAVYYCAARAYDSVGKYYYWGQGTQVNVSS | high polyreactivity |
| QVQLVESGGGLVQAGGSLRLSCAASGRIFYLYTMGWYRQAPGKERELVAAITWSGGRTFYADSVKGRFTISRDNAKNTVYLQMNSLKPEDTAVYYCAARAYDSVGKYYYWGQGTQVTVSS | high polyreactivity |
| QVQLVESGGGLVQAGGSLRLSCAASGRIFYNNVMGCYRQAPGKERELVAAISGNGGSTYYADSVKGRFTISRDNAKNTVYLQMNSLKPEDTAVYYCAARSSFRTLIFYQKFDYWGQGSQVTVSS | low polyreactivity |
| QVQLVESGGGLVQAGGSLRLSCAASGRIFYNYAMGWYRQAPGKERELVAAISGSGGSTYYADSVKGRFTISRDNAKNTVYLQMNSLKPEDTEVYYCSTSGPQYYSRNFDYWGQGTQVTVSS | low polyreactivity |
| QVQLVESGGGLVQAGGSLRLSCAASGRIFYNYAMRWYRQAPGKERELVAAISGSGGSTYYADSVKGRFTISRDNAKNTVYLQMNSLKPEDTAVYYCSTSGPQYYSRNFDYWGQGTQVTVSS | low polyreactivity |
| QVQLVESGGGLVQAGGSLRLSCAASGRIFYNYGMGWYRQAPGKERELVAAISSSGGSTSYADSVKGRFTISRDNAKNTVYLQMNSLKPEDTAVYYCAASWPRWWRFGYWGQGTQVTVSS | low polyreactivity |
